Laboratory results reported in PMC3545062 (Structure (London, England : 1993), 2012).
Positions count from the first letter of the chain named. Names may count otherwise. One block for each molecule: values may come before it.

How the values were obtained:
[1] = molecular target: Cdc13 OB2 domain L401A (S. cerevisiae) (UniProt P32797); assay: cross-linking
[2] = molecular target: Cdc13 OB2 domain P371S (cdc13-1 mutation) (S. cerevisiae) (UniProt P32797); assay: cross-linking
[3] = molecular target: Cdc13 OB2 domain Y388A (S. cerevisiae) (UniProt P32797); assay: cross-linking
cross-linking = molecular target: the molecule itself; assay: cross-linking
[4] = molecular target: T1, Cdc13 construct consisting of residues 344-924 (domains OB2-DBD-OB4) (S. cerevisiae, UniProt P32797 344-924); assay: ITC
T1 sequence (looked up): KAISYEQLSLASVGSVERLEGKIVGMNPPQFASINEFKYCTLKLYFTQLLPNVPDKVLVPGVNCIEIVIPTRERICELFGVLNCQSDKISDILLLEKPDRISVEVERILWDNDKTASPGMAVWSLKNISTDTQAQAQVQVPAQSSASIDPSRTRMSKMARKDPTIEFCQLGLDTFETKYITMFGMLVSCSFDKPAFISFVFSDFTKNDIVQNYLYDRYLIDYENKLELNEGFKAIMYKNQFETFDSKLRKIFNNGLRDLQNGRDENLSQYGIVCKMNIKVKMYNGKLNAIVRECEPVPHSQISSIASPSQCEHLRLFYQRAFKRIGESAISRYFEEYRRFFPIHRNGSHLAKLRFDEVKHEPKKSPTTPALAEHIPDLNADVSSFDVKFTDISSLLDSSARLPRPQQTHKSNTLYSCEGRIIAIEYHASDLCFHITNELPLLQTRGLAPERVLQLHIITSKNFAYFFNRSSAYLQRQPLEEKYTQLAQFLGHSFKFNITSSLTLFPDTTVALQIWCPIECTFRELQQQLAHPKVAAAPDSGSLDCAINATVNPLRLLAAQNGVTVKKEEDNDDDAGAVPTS

percent reduction of OB2 dimerization (cross-linking) [2]: 78%
Molecule: Cdc13 OB2 domain P371S (cdc13-1 mutation) (from UniProt P32797 344-495) (domain or fragment)

Kd [4]: 6.4 µM
B3: C-terminal domain of Stn1, residues 311-494 (domain or fragment, S. cerevisiae, UniProt P38960 311-494, looked up)
chain: NRTSAKSNLMLILLGLQMKEISNSDLYKLKEVRSVVTSLASFLFQQQNVGVMKSFDSLEKEAFRDLVNRLVSQGLIGLKDKTSETFDLLPLKNLFEYAEKRISVLMKLQCYTGTVQLSHVQEKLHLPYITTNGIVDVFKECLKRTKKQYPEVLKNWWIDLDPKNGMEDQNSGILLHLEYAAAYS

More lines, now with the values behind:

Molecule: Cdc13 OB2 domain L401A (from UniProt P32797 344-495) (domain or fragment)
percent reduction of OB2 dimerization (cross-linking) [1]: 50%

Molecule: Cdc13 OB2 domain Y388A (from UniProt P32797 344-495) (domain or fragment)
percent reduction of OB2 dimerization (cross-linking) [3]: 70%

B1: S. cerevisiae Cdc13 OB2 domain, wild type (domain or fragment, UniProt P32797 344-495, looked up)
chain: KAISYEQLSLASVGSVERLEGKIVGMNPPQFASINEFKYCTLKLYFTQLLPNVPDKVLVPGVNCIEIVIPTRERICELFGVLNCQSDKISDILLLEKPDRISVEVERILWDNDKTASPGMAVWSLKNISTDTQAQAQVQVPAQSSASIDPSR
stoichiometry N (cross-linking): 2

B2: Cdc13 OB2 domain C383S (domain or fragment, S. cerevisiae, UniProt P32797 344-495, looked up)
chain: B1 chain with C40S
binding result (cross-linking): binds
